{"source": "paper PMC6901335", "target": "Recombinant MFG-E8 Protein (unlabelled, bound to NL4.3-GFP VLPs) (not stated (human or mouse recombinant protein bought)) (UniProt P21956)", "sequence (P21956 23-463)": "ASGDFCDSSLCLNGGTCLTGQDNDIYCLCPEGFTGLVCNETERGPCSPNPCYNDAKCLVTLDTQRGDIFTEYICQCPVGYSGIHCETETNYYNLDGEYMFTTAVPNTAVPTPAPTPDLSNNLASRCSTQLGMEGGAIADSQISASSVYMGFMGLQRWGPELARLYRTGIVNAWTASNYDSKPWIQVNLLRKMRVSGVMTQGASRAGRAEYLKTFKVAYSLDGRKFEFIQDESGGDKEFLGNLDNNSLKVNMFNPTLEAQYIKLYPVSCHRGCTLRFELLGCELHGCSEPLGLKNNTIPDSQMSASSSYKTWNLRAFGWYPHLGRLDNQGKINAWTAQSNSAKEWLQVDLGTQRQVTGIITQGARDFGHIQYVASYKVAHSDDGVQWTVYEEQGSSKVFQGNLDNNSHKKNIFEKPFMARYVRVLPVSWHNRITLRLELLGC", "assay": "flow cytometry of viral-like particles; 1 × 10^4 NL4.3-GFP VLPs in 20 μl of 1% BSA/PBS or 1 × HBSS (1 mM Ca2+, 2 mM Mg2+, 1 mM Mn2+, 0.5% fatty acid free BSA) with MFG-E8 (5 μg/ml) and integrin αvβ3 (5 μg/ml) on ice for 30 min; bound proteins detected by αv and MFG-E8 antibodies", "data": [{"substance": "Recombinant Human Integrin alpha V beta 3 Protein (from UniProt P06756 31-1048; P05106 27-718) (receptor)", "values": [{"measurement": "percent of VLPs αvβ3/MFG-E8 positive", "result": 80, "unit": "%"}]}]}
